Source: article doi:10.1101/758714 (bioRxiv, 2019)

Experiments:
[1] = target: CRY1 photolyase homology region (PHR), residues 1-491 (human) (UniProt Q16526); test: fluorescence polarisation
[2] = target: T1, CRY1 photolyase homology region (PHR), residues 1-491 (human, UniProt Q16526 1-491); test: fluorescence polarisation
T1 sequence (looked up): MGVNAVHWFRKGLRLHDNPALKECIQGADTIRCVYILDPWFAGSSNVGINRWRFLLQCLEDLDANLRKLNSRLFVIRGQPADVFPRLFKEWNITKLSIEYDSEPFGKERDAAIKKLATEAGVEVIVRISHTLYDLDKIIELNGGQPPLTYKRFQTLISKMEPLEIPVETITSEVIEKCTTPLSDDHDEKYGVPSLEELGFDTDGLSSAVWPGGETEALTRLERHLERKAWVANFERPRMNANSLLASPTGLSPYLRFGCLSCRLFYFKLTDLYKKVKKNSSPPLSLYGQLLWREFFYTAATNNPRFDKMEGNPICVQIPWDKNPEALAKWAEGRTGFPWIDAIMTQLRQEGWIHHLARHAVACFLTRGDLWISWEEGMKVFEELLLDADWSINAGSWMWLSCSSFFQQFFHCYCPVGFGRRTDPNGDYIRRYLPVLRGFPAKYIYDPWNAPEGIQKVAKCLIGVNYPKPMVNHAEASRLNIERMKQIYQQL

Molecule	fold lower affinity than the hCRY1 tail [1] [fold]	Kd [2] [µM]
Δ11 version of the human CRY1 tail (from UniProt Q16526 492-586) (domain or fragment)	4	–
human CRY1 tail (residues 492-586) (domain or fragment, UniProt Q16526 492-586, looked up, fluorescein (FAM) on the N-terminus in the FP binding assays) SRYRGLGLLASVPSNPNGNGGFMGYSAENIPGCSSSGSCSQGSGILHYAHGDSQQTHLLKQGRSSMGTGLSGGKRPSQEEDTQSIGPKVQRQSTN	–	~5
